# Laboratory results reported in paper PMC6803476, “Nanodomain Clustering of the Plant Protein Remorin by Solid-State NMR” (Frontiers in Molecular Biosciences, 2019).
# B1: REM_(86-198), truncated StREM1.3 bearing only the coiled-coil domain and RemCA (domain or fragment, Solanum tuberosum (potato), UniProt P93788 86-198, looked up)
# chain: TEKRVSLIKAWEESEKSKAENKAQKKVSAIGAWENSKKANLEAELKKMEEQLEKKKAEYTEKMKNKIALLHKEAEEKRAMIEAKRGEDLLKAEELAAKYRATGTAPKKILGIF
# notes: Remorin group 1 isoform 3 (StREM1.3) of potato (Solanum tuberosum), residues 86-198: coiled-coil segment and the C-terminal membrane anchor RemCA; source: E. coli BL21-DE3 (pET24 vector), purified as described in Martinez et al. (2018), HiPrep gel filtration buffer exchange
# Molecular target: the molecule itself
# Assay: negative staining electron microscopy; purified protein incubated overnight at 30°C with preformed liposomes (protein/lipid 1/20; DMPC-d54/β-sitosterol 85/15 or DMPC-d54/β-sitosterol/PIP mix 75/15/10), 2% uranyl acetate stain; filaments mostly in samples without PIPs, very few with PIPs
protein,measurement,value
B1,binding result,binds
